This is an account of results in publication PMC10618690.

Test [1] has as its target histone H3 amino acids 16-35, H3K27me3 peptide (UniProt P68431). Put plainly: peptide or protein array.
In test [2] the target is histone H3 amino acids 16-35, H3K27me2 peptide (UniProt P68431). Briefly: peptide or protein array.

For the substance “GST-tagged PWWP2 domain of Apis mellifera DNMT3 (domain or fragment)”, the fold increase in binding over the unmodified peptide in test [1] and in test [2] was 3 fold each time.

As for “GST-tagged PWWP1 domain of Apis mellifera DNMT3 (domain or fragment)”, the figures for the fold increase in binding over the corresponding unmodified peptide in test [1] and in test [2] were 3 fold and 5 fold, respectively.
